Measured values taken from paper PMC9482650, “Quantitative fragmentomics allow affinity mapping of interactomes” (Nature Communications, 2022).
One block for each binder: values may come before it.

Assays:
Assay in all cases: holdup assay
Parameters in all cases: key: below the threshold = too weak to quantify, mostly under pKd 3.1 to 4
[1] = molecular target: MAST2, Q6P0Q8
[2] = molecular target: T1, LIN7A, O14910
T1 sequence (O14910 103-200, limits assumed, looked up): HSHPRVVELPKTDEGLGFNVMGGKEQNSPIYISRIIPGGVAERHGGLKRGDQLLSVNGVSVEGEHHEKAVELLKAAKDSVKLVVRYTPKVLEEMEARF

[3] = molecular target: T2, PARD3B_1, Q8TEW8
T2 sequence (Q8TEW8 196-299, limits assumed, looked up): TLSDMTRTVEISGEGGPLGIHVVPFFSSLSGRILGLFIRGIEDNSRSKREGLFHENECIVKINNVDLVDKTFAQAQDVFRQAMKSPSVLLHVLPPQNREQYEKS

[4] = molecular target: T3, LIN7B, Q9HAP6
T3 sequence (Q9HAP6 88-185, limits assumed, looked up): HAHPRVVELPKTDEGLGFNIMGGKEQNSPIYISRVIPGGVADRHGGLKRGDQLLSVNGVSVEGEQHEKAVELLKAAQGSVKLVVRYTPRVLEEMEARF

[5] = molecular target: GRIP2_5, Q9C0E4
[6] = molecular target: GRIP2_7, Q9C0E4
[7] = molecular target: T4, MPDZ_5, O75970
T4 sequence (O75970 695-796, limits assumed, looked up): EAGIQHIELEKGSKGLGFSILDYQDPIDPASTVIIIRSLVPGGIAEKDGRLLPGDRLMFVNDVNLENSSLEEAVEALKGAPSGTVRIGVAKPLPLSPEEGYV

[8] = molecular target: FRMPD4, Q14CM0
[9] = molecular target: GRASP, Q7Z6J2
[10] = molecular target: T5, PCLO, Q9Y6V0
T5 sequence (Q9Y6V0 4491-4600, limits assumed, looked up): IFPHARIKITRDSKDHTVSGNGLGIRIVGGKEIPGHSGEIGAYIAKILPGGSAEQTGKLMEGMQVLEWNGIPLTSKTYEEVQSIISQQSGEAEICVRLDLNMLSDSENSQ

[11] = molecular target: T6, DLG3_3, Q92796
T6 sequence (Q92796 374-475, limits assumed, looked up): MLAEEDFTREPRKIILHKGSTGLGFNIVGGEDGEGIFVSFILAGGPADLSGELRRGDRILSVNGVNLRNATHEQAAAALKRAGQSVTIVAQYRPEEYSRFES

[12] = molecular target: MAGI3_2, Q5TCQ9
[13] = molecular target: DLG2_2, Q15700
[14] = molecular target: LNX1_3, Q8TBB1
[15] = molecular target: Inadl_5, Q8NI35
[16] = molecular target: TJP1_3, Q07157
[17] = molecular target: T7, TX1BP3, O14907
T7 sequence (O14907 10-122, limits assumed, looked up): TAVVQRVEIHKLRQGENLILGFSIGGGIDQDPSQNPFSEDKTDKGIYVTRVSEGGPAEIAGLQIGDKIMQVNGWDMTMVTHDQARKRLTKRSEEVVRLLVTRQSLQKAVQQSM

[18] = molecular target: Inadl_10, Q8NI35
[19] = molecular target: PICK1, Q9NRD5
[20] = molecular target: DLG1_2, Q12959
[21] = molecular target: GRIP2_3, Q9C0E4
[22] = molecular target: DLG1_3, Q12959
[23] = molecular target: DLG1_1, Q12959
[24] = molecular target: LDB3, O75112
[25] = molecular target: T8, PDZD7_3, Q9H5P4
T8 sequence (Q9H5P4 857-944, limits assumed, looked up): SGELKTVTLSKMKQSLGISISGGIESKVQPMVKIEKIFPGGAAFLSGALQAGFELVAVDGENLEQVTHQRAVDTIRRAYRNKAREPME

[26] = molecular target: IL16_3, Q14005
[27] = molecular target: T9, SNTG2, Q9NY99
T9 sequence (Q9NY99 68-166, limits assumed, looked up): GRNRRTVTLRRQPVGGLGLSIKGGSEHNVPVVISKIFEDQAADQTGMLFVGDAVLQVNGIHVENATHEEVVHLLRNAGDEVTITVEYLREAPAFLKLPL

[28] = molecular target: T10, ARHGAP21, Q5T5U3
T10 sequence (Q5T5U3 45-169, limits assumed, looked up): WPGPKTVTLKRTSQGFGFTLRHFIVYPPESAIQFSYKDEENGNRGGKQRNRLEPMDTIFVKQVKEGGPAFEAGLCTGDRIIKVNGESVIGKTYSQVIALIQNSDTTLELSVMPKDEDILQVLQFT

[29] = plain residues with an end cap or a label only (N-terminal biotin on a linker: ttds)
[30] = plain residues with an end cap or a label only (N-terminal biotin on a linker: ahx)

Sequence of IL16_3, Q14005 (Q14005 1107-1207): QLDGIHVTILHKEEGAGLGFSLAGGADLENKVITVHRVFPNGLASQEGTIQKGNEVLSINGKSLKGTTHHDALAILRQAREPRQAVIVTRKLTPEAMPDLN
Sequence of PICK1, Q9NRD5 (Q9NRD5 17-115): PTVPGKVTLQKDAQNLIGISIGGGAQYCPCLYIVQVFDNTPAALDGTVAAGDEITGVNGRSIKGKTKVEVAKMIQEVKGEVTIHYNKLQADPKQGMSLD
Sequence of GRASP, Q7Z6J2 (Q7Z6J2 96-193): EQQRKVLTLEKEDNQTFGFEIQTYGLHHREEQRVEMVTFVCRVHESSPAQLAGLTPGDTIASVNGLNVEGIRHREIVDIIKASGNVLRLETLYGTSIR
Sequence of LDB3, O75112 (O75112 1-94): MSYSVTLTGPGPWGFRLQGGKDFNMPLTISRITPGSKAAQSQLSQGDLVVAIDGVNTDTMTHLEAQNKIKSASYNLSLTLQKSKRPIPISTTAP
Sequence of GRIP2_3, Q9C0E4 (Q9C0E4 238-339): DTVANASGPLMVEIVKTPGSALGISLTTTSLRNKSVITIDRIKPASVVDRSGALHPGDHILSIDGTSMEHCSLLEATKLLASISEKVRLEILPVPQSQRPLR
Sequence of DLG2_2, Q15700 (Q15700 189-283): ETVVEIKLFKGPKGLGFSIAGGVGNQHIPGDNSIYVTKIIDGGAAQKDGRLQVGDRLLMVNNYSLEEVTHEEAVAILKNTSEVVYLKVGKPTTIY
Sequence of TJP1_3, Q07157 (Q07157 416-512): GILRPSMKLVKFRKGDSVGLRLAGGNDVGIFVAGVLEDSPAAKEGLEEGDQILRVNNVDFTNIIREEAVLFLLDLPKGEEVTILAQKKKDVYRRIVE
Sequence of GRIP2_7, Q9C0E4 (Q9C0E4 934-1023): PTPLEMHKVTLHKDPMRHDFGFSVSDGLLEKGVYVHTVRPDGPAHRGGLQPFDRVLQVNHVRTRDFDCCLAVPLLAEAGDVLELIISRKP
Sequence of GRIP2_5, Q9C0E4 (Q9C0E4 544-642): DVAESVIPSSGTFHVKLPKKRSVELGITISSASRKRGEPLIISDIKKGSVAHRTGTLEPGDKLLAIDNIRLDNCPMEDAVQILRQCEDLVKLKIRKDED
Sequence of FRMPD4, Q14CM0 (Q14CM0 67-160): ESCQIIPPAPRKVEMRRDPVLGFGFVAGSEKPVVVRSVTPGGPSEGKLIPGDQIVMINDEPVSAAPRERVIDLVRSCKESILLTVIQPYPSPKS
Sequence of LNX1_3, Q8TBB1 (Q8TBB1 500-596): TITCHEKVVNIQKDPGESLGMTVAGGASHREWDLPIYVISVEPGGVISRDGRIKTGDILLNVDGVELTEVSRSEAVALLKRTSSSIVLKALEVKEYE
Sequence of Inadl_10, Q8NI35 (Q8NI35 1673-1763): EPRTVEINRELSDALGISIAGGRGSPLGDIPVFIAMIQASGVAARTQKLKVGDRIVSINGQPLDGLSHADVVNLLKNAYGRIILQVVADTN
Sequence of Inadl_5, Q8NI35 (Q8NI35 673-780): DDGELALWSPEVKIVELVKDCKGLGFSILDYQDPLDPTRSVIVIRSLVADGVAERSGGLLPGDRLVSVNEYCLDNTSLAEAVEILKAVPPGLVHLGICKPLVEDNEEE
Sequence of MAGI3_2, Q5TCQ9 (Q5TCQ9 398-503): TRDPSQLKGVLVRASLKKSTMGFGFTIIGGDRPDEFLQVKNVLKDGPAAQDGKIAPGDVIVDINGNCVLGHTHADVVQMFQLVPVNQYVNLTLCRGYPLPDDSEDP
Sequence of MAST2, Q6P0Q8 (Q6P0Q8 1099-1202): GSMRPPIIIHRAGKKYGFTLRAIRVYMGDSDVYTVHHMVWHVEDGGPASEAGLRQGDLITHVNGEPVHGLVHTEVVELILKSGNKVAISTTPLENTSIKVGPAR

pKd [1, 29]: 5.64
pKd [2, 29]: below the threshold
pKd [3, 29]: below the threshold
pKd [4, 29]: below the threshold
pKd [5, 29]: below the threshold
pKd [6, 29]: below the threshold
pKd [7, 29]: below the threshold
pKd [8, 29]: 4.34
pKd [9, 29]: below the threshold
pKd [10, 29]: below the threshold
pKd [11, 29]: below the threshold
pKd [12, 29]: 4.19
pKd [13, 29]: below the threshold
pKd [14, 29]: below the threshold
pKd [15, 29]: below the threshold
pKd [16, 29]: below the threshold
pKd [17, 29]: 4.03
pKd [18, 29]: below the threshold
pKd [19, 29]: below the threshold
pKd [20, 29]: below the threshold
pKd [21, 29]: below the threshold
pKd [22, 29]: below the threshold
pKd [23, 29]: 3.77
pKd [24, 29]: below the threshold
pKd [25, 29]: 4.07
pKd [26, 29]: below the threshold
pKd [27, 29]: 4.06
pKd [28, 29]: below the threshold
B1: TMIGD1, Q6UXZ0 (peptide)
chain: DKDPHSETAL

pKd [1, 30]: 4.53
pKd [2, 30]: below the threshold
pKd [3, 30]: below the threshold
pKd [4, 30]: below the threshold
pKd [5, 30]: below the threshold
pKd [6, 30]: below the threshold
pKd [7, 30]: below the threshold
pKd [8, 30]: 4.69
pKd [9, 30]: below the threshold
pKd [10, 30]: below the threshold
pKd [11, 30]: below the threshold
pKd [12, 30]: below the threshold
pKd [13, 30]: below the threshold
pKd [14, 30]: below the threshold
pKd [15, 30]: below the threshold
pKd [16, 30]: below the threshold
pKd [17, 30]: below the threshold
pKd [18, 30]: below the threshold
pKd [19, 30]: below the threshold
pKd [20, 30]: below the threshold
pKd [21, 30]: below the threshold
pKd [22, 30]: below the threshold
pKd [23, 30]: below the threshold
pKd [24, 30]: below the threshold
pKd [25, 30]: below the threshold
pKd [26, 30]: below the threshold
pKd [27, 30]: below the threshold
pKd [28, 30]: below the threshold
B2: KCTD3, Q9Y597 (peptide)
chain: SDSSGQEYSL
